{
  "source": "the supplement of paper PMC10567573",
  "parents": {"B1": {"name": "DFFB (parent)", "chain": "TLVEAIKEQDGREVDWEYFYGLLF"}},
  "data": [
    {"variants_of": "B1", "assay": "protein stability index of a GFP-peptide fusion (GPS, HEK-293T) (PSI 1-6); higher = more stable", "conditions": "c terminus: a fixed tail appended", "values": [
      {"variant": "TLVEAIKEQDGREVDLEYFYGLLF", "note": "[W16L]", "protein stability index": 1.66},
      {"variant": "TLVEAIKEQDGREVDQEYFYGLLF", "note": "[W16Q]", "protein stability index": 2.17},
      {"variant": "TLVEAIKEQDGREVDREYFYGLLF", "note": "[W16R]", "protein stability index": 2.3},
      {"variant": "TLVEAIKEQDGREVDTEYFYGLLF", "note": "[W16T]", "protein stability index": 3.12},
      {"variant": "TLVEAIKEQDGREVDEEYFYGLLF", "note": "[W16E]", "protein stability index": 2.19},
      {"variant": "TLVEAIKEQDGREVDFEYFYGLLF", "note": "[W16F]", "protein stability index": 1.93},
      {"variant": "TLVEAIKEQDGREVDNEYFYGLLF", "note": "[W16N]", "protein stability index": 2.63},
      {"variant": "TLVEAIKEQDGREVDPEYFYGLLF", "note": "[W16P]", "protein stability index": 2.44},
      {"variant": "TLVEAIKEQDGREVDCEYFYGLLF", "note": "[W16C]", "protein stability index": 2.46},
      {"variant": "TLVEAIKEQDGREVDHEYFYGLLF", "note": "[W16H]", "protein stability index": 1.58},
      {"variant": "TLVEAIKEQDGREVDWEYHYGLLF", "note": "[F19H]", "protein stability index": 2.5},
      {"variant": "TLVEAIKEQDGREVDWEYKYGLLF", "note": "[F19K]", "protein stability index": 3.22},
      {"variant": "TLVEAIKEQDGREVDWEYRYGLLF", "note": "[F19R]", "protein stability index": 2.31},
      {"variant": "TLVEAIKEQDGREVDWEYYYGLLF", "note": "[F19Y]", "protein stability index": 2.19},
      {"variant": "TLVEAIKEQDGREVDWEYAYGLLF", "note": "[F19A]", "protein stability index": 1.9},
      {"variant": "TLVEAIKEQDGREVDWEYVYGLLF", "note": "[F19V]", "protein stability index": 1.42},
      {"variant": "TLVEAIKEQDGREVDWEYSYGLLF", "note": "[F19S]", "protein stability index": 2.68},
      {"variant": "TLVEAIKEQDGREVDWEYWYGLLF", "note": "[F19W]", "protein stability index": 2.39},
      {"variant": "TLVEAIKEQDGREVDWEYCYGLLF", "note": "[F19C]", "protein stability index": 2.04},
      {"variant": "TLVEAIKEQDGREVDWEYMYGLLF", "note": "[F19M]", "protein stability index": 2.17},
      {"variant": "TLVEAIKEQDGREVDWEYPYGLLF", "note": "[F19P]", "protein stability index": 3.01},
      {"variant": "TLVEAIKEQDGREVDWEYLYGLLF", "note": "[F19L]", "protein stability index": 2.1},
      {"variant": "TLVEAIKEQDGREVDWEYNYGLLF", "note": "[F19N]", "protein stability index": 2.24},
      {"variant": "TLVEAIKEQDGREVDWEYIYGLLF", "note": "[F19I]", "protein stability index": 1.55},
      {"variant": "TLVEAIKEQDGREVDWEYQYGLLF", "note": "[F19Q]", "protein stability index": 3.44},
      {"variant": "TLVEAIKEQDGREVDWEYDYGLLF", "note": "[F19D]", "protein stability index": 2.76},
      {"variant": "TLVEAIKEQDGREVDWEYTYGLLF", "note": "[F19T]", "protein stability index": 2.69},
      {"variant": "TLVEAIKEQDYREVDWEYFYGLLF", "note": "[G11Y]", "protein stability index": 1.88},
      {"variant": "TLVEAIKEQDFREVDWEYFYGLLF", "note": "[G11F]", "protein stability index": 1.02},
      {"variant": "TLVEAIKEQDAREVDWEYFYGLLF", "note": "[G11A]", "protein stability index": 1.84},
      {"variant": "TLVEAIKEQDCREVDWEYFYGLLF", "note": "[G11C]", "protein stability index": 2.72},
      {"variant": "TLVEAIKEQDKREVDWEYFYGLLF", "note": "[G11K]", "protein stability index": 1.61},
      {"variant": "TLVEAIKEQDQREVDWEYFYGLLF", "note": "[G11Q]", "protein stability index": 2.04},
      {"variant": "TLVEAIKEQDPREVDWEYFYGLLF", "note": "[G11P]", "protein stability index": 2.44},
      {"variant": "TLVEAIKEQDEREVDWEYFYGLLF", "note": "[G11E]", "protein stability index": 2.13},
      {"variant": "TLVEAIKEQDVREVDWEYFYGLLF", "note": "[G11V]", "protein stability index": 2.92},
      {"variant": "TLVEAIKEQDTREVDWEYFYGLLF", "note": "[G11T]", "protein stability index": 2.28},
      {"variant": "TLVEAIKEQDMREVDWEYFYGLLF", "note": "[G11M]", "protein stability index": 2.13},
      {"variant": "TLVEAIKEQDHREVDWEYFYGLLF", "note": "[G11H]", "protein stability index": 2.04},
      {"variant": "TLVEAIKEQDNREVDWEYFYGLLF", "note": "[G11N]", "protein stability index": 2.13},
      {"variant": "TLVEAIKEQDSREVDWEYFYGLLF", "note": "[G11S]", "protein stability index": 1.7},
      {"variant": "TLVEAIKEQDGREVDWERFYGLLF", "note": "[Y18R]", "protein stability index": 2.2},
      {"variant": "TLVEAIKEQDGREVDWESFYGLLF", "note": "[Y18S]", "protein stability index": 2.24},
      {"variant": "TLVEAIKEQDGREVDWEIFYGLLF", "note": "[Y18I]", "protein stability index": 2.06},
      {"variant": "TLVEAIKEQDGREVDWEVFYGLLF", "note": "[Y18V]", "protein stability index": 2.34},
      {"variant": "TLVEAIKEQDGREVDWEDFYGLLF", "note": "[Y18D]", "protein stability index": 2.16},
      {"variant": "TLVEAIKEQDGREVDWELFYGLLF", "note": "[Y18L]", "protein stability index": 1.25},
      {"variant": "TLVEAIKEQDGREVDWEMFYGLLF", "note": "[Y18M]", "protein stability index": 1.94},
      {"variant": "TLVEAIKEQDGREVDWEQFYGLLF", "note": "[Y18Q]", "protein stability index": 2.18},
      {"variant": "TLVEAIKEQDGREVDWETFYGLLF", "note": "[Y18T]", "protein stability index": 1.9},
      {"variant": "TLVEAIKEQDGREVDWEAFYGLLF", "note": "[Y18A]", "protein stability index": 1.92},
      {"variant": "TLVEAIKEQDGREVDWEWFYGLLF", "note": "[Y18W]", "protein stability index": 1.76},
      {"variant": "TLVEAIKEQDGREVDWEGFYGLLF", "note": "[Y18G]", "protein stability index": 1.71},
      {"variant": "TLVEAIKEQDGREVDWENFYGLLF", "note": "[Y18N]", "protein stability index": 2.44},
      {"variant": "TLVEAIKEQDGREVDWEFFYGLLF", "note": "[Y18F]", "protein stability index": 1.76},
      {"variant": "TLVEAIKEQDGREVDWEHFYGLLF", "note": "[Y18H]", "protein stability index": 3.81},
      {"variant": "TLVEAIKEQDGREADWEYFYGLLF", "note": "[V14A]", "protein stability index": 2.25},
      {"variant": "TLVEAIKEQDGREQDWEYFYGLLF", "note": "[V14Q]", "protein stability index": 1.7},
      {"variant": "TLVEAIKEQDGRETDWEYFYGLLF", "note": "[V14T]", "protein stability index": 2.36},
      {"variant": "TLVEAIKEQDGREKDWEYFYGLLF", "note": "[V14K]", "protein stability index": 1.23},
      {"variant": "TLVEAIKEQDGREHDWEYFYGLLF", "note": "[V14H]", "protein stability index": 1.91},
      {"variant": "TLVEAIKEQDGREPDWEYFYGLLF", "note": "[V14P]", "protein stability index": 1.76},
      {"variant": "TLVEAIKEQDGREMDWEYFYGLLF", "note": "[V14M]", "protein stability index": 1.98},
      {"variant": "TLVEAIKEQDGREWDWEYFYGLLF", "note": "[V14W]", "protein stability index": 2.12},
      {"variant": "TLVEAIKEQDGRELDWEYFYGLLF", "note": "[V14L]", "protein stability index": 2.28},
      {"variant": "TLVEAIKEQDGREGDWEYFYGLLF", "note": "[V14G]", "protein stability index": 2.12},
      {"variant": "TLVEAIKEQDGREYDWEYFYGLLF", "note": "[V14Y]", "protein stability index": 2.18},
      {"variant": "TLVEAIKEQDGRERDWEYFYGLLF", "note": "[V14R]", "protein stability index": 1.65},
      {"variant": "TLVEAIKEQDGREFDWEYFYGLLF", "note": "[V14F]", "protein stability index": 1.51},
      {"variant": "TLVEAIKEQDGRENDWEYFYGLLF", "note": "[V14N]", "protein stability index": 2.36},
      {"variant": "TLVEAIKEQDGREDDWEYFYGLLF", "note": "[V14D]", "protein stability index": 1.28},
      {"variant": "TLVEAIKEQDGREEDWEYFYGLLF", "note": "[V14E]", "protein stability index": 2.37},
      {"variant": "TLVEAIKEQDGREIDWEYFYGLLF", "note": "[V14I]", "protein stability index": 2.05},
      {"variant": "TLVEAIKEQDGRECDWEYFYGLLF", "note": "[V14C]", "protein stability index": 1.5},
      {"variant": "TLVEAIKEQDGRESDWEYFYGLLF", "note": "[V14S]", "protein stability index": 2.24},
      {"variant": "TLVEAIKEQDGREVDWEYFDGLLF", "note": "[Y20D]", "protein stability index": 2.36},
      {"variant": "TLVEAIKEQDGREVDWEYFWGLLF", "note": "[Y20W]", "protein stability index": 1.72},
      {"variant": "TLVEAIKEQDGREVDWEYFFGLLF", "note": "[Y20F]", "protein stability index": 1.93},
      {"variant": "TLVEAIKEQDGREVDWEYFQGLLF", "note": "[Y20Q]", "protein stability index": 2.07},
      {"variant": "TLVEAIKEQDGREVDWEYFEGLLF", "note": "[Y20E]", "protein stability index": 1.67},
      {"variant": "TLVEAIKEQDGREVDWEYFMGLLF", "note": "[Y20M]", "protein stability index": 2.64},
      {"variant": "TLVEAIKEQDGREVDWEYFVGLLF", "note": "[Y20V]", "protein stability index": 2.42},
      {"variant": "TLVEAIKEQDGREVDWEYFCGLLF", "note": "[Y20C]", "protein stability index": 1.92},
      {"variant": "TLVEAIKEQDGREVDWEYFRGLLF", "note": "[Y20R]", "protein stability index": 2.67},
      {"variant": "TLVEAIKEQDGREVDWEYFTGLLF", "note": "[Y20T]", "protein stability index": 1.54},
      {"variant": "TLVEAIKEQDGREVDWEYFKGLLF", "note": "[Y20K]", "protein stability index": 1.6},
      {"variant": "TLVEAIKEQDGREVDWEYFSGLLF", "note": "[Y20S]", "protein stability index": 1.33},
      {"variant": "TLVEAIKEQDGREVDWEYFNGLLF", "note": "[Y20N]", "protein stability index": 2.25},
      {"variant": "TLVEAIKEQDGREVDWEYFHGLLF", "note": "[Y20H]", "protein stability index": 2.03},
      {"variant": "TLVEAIKEQDGREVDWEYFPGLLF", "note": "[Y20P]", "protein stability index": 2.67},
      {"variant": "TLVEAIKEQDGREVDWEYFLGLLF", "note": "[Y20L]", "protein stability index": 1.53},
      {"variant": "TLVEAIKEQDGREVDWEYFGGLLF", "note": "[Y20G]", "protein stability index": 1.79},
      {"variant": "TLVEAIKEQDGREVDWEYFAGLLF", "note": "[Y20A]", "protein stability index": 2.03},
      {"variant": "TLVEAIKEQDGREVDWEYFIGLLF", "note": "[Y20I]", "protein stability index": 1.78}
    ]}
  ]
}
